We go through two molecules from patent publication US20230331852A1 (OSE IMMUNOTHERAPEUTICS, published 2023).

Assay [1] has as its target T1, human CLEC-1A expressed on the cell membrane (human, UniProt Q8NC01 1-280).
T1 construct: Endogenous on human U266 myeloma cells, on monocyte-derived TGFb-DC and macrophages; on CHO cells after transduction with a Clec-1 expressing lentivirus; also called U266 CLEC1; CLEC-1A on U266 cells
T1 sequence: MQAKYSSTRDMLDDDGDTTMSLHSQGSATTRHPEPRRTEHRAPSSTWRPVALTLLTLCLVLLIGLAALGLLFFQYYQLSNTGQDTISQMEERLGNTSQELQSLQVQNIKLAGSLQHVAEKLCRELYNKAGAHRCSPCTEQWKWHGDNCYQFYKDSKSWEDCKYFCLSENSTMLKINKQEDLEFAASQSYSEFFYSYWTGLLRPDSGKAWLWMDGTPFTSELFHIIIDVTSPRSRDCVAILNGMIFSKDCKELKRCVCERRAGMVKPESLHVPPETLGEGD
Kind of assay: flow cytometry on U266 cells; printed as ED50, read-out Mean. Background: A flow cytometer gives signals particle by particle.

The target in assay [2] is T1, human CLEC-1A expressed on the cell …. Kind of assay: flow cytometry on U266 cells; printed as ED50, read-out % + cells.
For assay [3], the target named is T2, recombinant human CLEC-1 protein with His Tag (#1704-CL R&D Systems) (human, UniProt Q8NC01 74-280).
T2 construct: Bought protein; also called His-CLEC1; His Clec-1; not shown: His tag
T2 sequence: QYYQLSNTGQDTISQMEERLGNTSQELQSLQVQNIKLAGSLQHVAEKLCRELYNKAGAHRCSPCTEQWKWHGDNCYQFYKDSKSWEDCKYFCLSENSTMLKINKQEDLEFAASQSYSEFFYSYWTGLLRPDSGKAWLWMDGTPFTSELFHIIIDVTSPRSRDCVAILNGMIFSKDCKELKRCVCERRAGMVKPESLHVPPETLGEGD
In words: BLI (Blitz), CLEC1-His on Ni-NTA biosensor, antibody at 20 ug/mL; murine clone, FIG. 16. On the procedure:
(§1) Analysis was performed with a BLItz System (Fortébio, #C22-2 No 61010-1, Molecular Devices, San José, USA).
(§2) The affinity of the anti-hCLEC1 antibodies, was measured with Blitz system (Forté Bio, C22-2 No 61010-1).

Assay [4] deals with T2, recombinant human CLEC-1 protein with …. Kind of assay: ELISA on immobilised human His-CLEC1 (column hm His Clec); given as ED50. Here is the method: (§3) Method: The binding activity of the anti-hCLEC1 antibodies was assessed by ELISA (Enzyme-linked immunosorbent assay). […] A second ELISA assays was performed, like above, with immobilization of CLEC1-Fc (OSE Immunotherapeutics) at 2 μg/ml. A third ELISA assays was performed to see the cross-reactivity with mouse CLEC1. Like above, ELISA was made with immobilization of mouse Fc-CLEC1 (OSE Immunotherapeutics) at 2 μg/ml in carbonate buffer instead of His-Clec. Purified antibodies were added at different concentrations to measure binding. […] Control antibody is a commercial anti-CLEC-1A antibody.
Background: ELISA stands for enzyme-linked immunosorbent assay.

For assay [5] the target is unchanged. In words: Blitz biolayer interferometry, His-CLEC1 on Ni-NTA biosensor, antibody at 20 ug/mL. On the procedure: as §1, §2
Background: Biolayer interferometry detects binding as a change in optical thickness at a sensor tip.

The target of assay [6] is T3, Fc-CLEC1 labelled with Alexa Fluor 488 (human, Alexa Fluor 488 label (sites not given)).
T3 construct: also called Fc-CLEC1-A488; Alexa488-Fc-Clec-1
T3 chain: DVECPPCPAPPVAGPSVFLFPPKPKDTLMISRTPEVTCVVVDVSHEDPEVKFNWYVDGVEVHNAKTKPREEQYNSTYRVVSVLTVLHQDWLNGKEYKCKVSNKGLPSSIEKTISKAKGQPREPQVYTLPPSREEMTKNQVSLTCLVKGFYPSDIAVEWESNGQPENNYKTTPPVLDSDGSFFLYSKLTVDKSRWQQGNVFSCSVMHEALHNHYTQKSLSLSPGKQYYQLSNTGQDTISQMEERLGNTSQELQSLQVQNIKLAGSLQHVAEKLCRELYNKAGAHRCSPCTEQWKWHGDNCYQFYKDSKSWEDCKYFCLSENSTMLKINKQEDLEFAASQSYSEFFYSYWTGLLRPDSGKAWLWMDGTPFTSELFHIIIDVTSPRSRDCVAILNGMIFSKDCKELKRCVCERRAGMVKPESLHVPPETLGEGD
Kind of assay: FACS competition: blocks Fc-CLEC1-A488 (10 nM) binding to CLEC-1 ligand on UV-treated PBMC; read-out Mean. On the procedure: (§4) Methods. To measure competition on permeabilised Raji (CytoFix/cytoperm kit, BD Biosciences) which expressed CLEC1 ligand, Fc-CLEC1-labelled A488 which bound specifically to permeabilised Raji was used. To measure competition, Fc-CLEC1 labelled A488 at 10 nM or 20 nM was mixed with mouse anti-hCLEC1 at different concentrations for 15 min at RT then added on these cells for 30 min at 4° C. […] To measure competition on PMBC, we used human PBMC pre-treated by UV for 18 h to obtain apoptotic PBMC, which expressed CLEC1 ligand. Fc-CLEC1-labelled A488 bound specifically apoptotic UV-treated PBMC. To measure competition, Fc-CLEC1 labelled A488 at 10 nM was mixed with mouse anti-hCLEC1 at different concentrations for 15 min at RT then added on these cells for 30 min at 4° C.

Assay [7] concerns the target T3, Fc-CLEC1 labelled with Alexa Fluor 488. In words: FACS competition: blocks Fc-CLEC1-A488 (10 nM) binding to CLEC-1 ligand on UV-treated PBMC; read-out % + cells. Here is the method: as §4
Assay [8] has the same target. In words: FACS competition: blocks Fc-CLEC1-A488 (10 nM) binding to CLEC-1 ligand on permeabilised Raji cells; read-out Mean. Here is the method:
as §4

For assay [9] the target is unchanged. Kind of assay: FACS competition: blocks Fc-CLEC1-A488 (20 nM) binding to CLEC-1 ligand on permeabilised Raji cells; read-out Mean. On the procedure: as §4
For assay [10] the target is unchanged. Kind of assay: FACS competition: blocks Fc-CLEC1-A488 (10 nM) binding to CLEC-1 ligand on permeabilised Raji cells; read-out % + cells. On the procedure:
as §4

For assay [11] the target is unchanged. Kind of assay: FACS competition: blocks Fc-CLEC1-A488 (20 nM) binding to CLEC-1 ligand on permeabilised Raji cells; read-out % + cells. On the procedure: as §4
Assay [12] addresses T1, human CLEC-1A expressed on the cell …. Kind of assay: flow cytometry on U266 cells. Here is the method: (§5) Method: To measure binding of anti-CLEC1 on human U266 cell lines (pre-blocked with Fcblock to blocking FcR), antibodies at different concentrations were incubated for 30 min at 4° C., and washed before stained 30 min at 4° C. with PE-labelled anti-human IgG (Biolegend; reference 409304). Samples were analyzed on Cytoflex cytofluorometer (Beckman Coulter). The MFI of anti-CLEC1 was compared between all anti-CLEC1 antibodies and percentage of stained cells was analysed in all conditions.

In assay [13] the target is T2, recombinant human CLEC-1 protein with …. Kind of assay: ELISA on immobilised His-CLEC1 (from FIGURE 12). Here is the method: as §3
In assay [14] the target is T1, human CLEC-1A expressed on the cell …. In words: flow cytometry on CHO-Clec-1 cells (from FIGURE 21). On the procedure: (§6) To measure binding of anti-clec on CHO-Clec-1 cells, human Fc Receptor Binding Inhibitor diluted at 1/200 (BD pharmingen; USA; reference 564220) was first added for 30 min at room-temperature to block human Fc receptors on CHO-Clec-1 cells to reduce background. Then, antibodies were incubated for 30 min at 4° C., and washed before stained 15 min at 4° C. with PE-labelled anti-human IgG Fc (Biolegend; USA; reference 409303). Samples were analyzed on citoflex (Beckman coulter)

For assay [15] the target is unchanged. Kind of assay: flow cytometry on U266 cells, PE anti-human IgG; % positive cells. Here is the method:
as §5

For assay [16] the target is unchanged. Kind of assay: flow cytometry on U266 cells, PE anti-human IgG; median fluorescence. On the procedure: as §5
Assay [17] has the same target. Kind of assay: flow cytometry on CHO-Clec-1 cells, revealed with anti-hFc-PE; % positive cells. Here is the method: as §6
In assay [18] the target is T2, recombinant human CLEC-1 protein with …. In words: Blitz biolayer interferometry, His-CLEC1 on Ni-NTA biosensor, antibody at 20 ug/mL. The source holds these as a separate data set.
For assay [19], the target named is T1, human CLEC-1A expressed on the cell …. In words: flow cytometry on CHO-Clec-1 cells, revealed with anti-hFc-PE; median fluorescence. On the procedure:
as §6

Assay [20] has as its target T3, Fc-CLEC1 labelled with Alexa Fluor 488. Kind of assay: FACS competition: blocks Fc-CLEC1-A488 (10 nM) binding to CLEC-1 ligand on UV-treated PBMC. On the procedure:
Competition were also measured on UV pre-treated pro-apoptotic human PBMCs, which can also express the ligand after a treatment under UV radiation for 18 hours. After UV treatment, cells were first washed in cold-PSE and then blocked during 30 min at room temperature with human Fc-block 50-fold diluted in PSE, and then replaced on ice. Purified anti-Clec antibodies at different concentrations were pre-incubated with Alexa488-Fc-Clec-1 in PSE at different concentrations for 15 min at room temperature. Pre-incubated mixes were then incubated on Fc-blocked/SAB (#34005-100, Invitrogen, Illkirch, France) pro-apoptotic PBMCs for 30 min on ice. Binding on cells were then fixed by PFA 2% in cold PBS for 10 min on ice and analyzed on CytoFlex cytofluorometer (Beckman Coulter France, Villepinte).
as §4

The target is the same in assay [21]. In words: FACS competition: blocks Fc-CLEC1-A488 (10 nM) binding to CLEC-1 ligand on permeabilised Raji cells; IC50 median. On the procedure:
To measure competition, purified anti-Clec antibodies at different concentrations were pre-incubated in Perm Wash Buffer with Alexa488-Fc-Clec-1 for 15 min at room temperature. Pre-incubated mixes were then incubated on permeabilized and Fc-blocked Raji cells for 30 min on ice. Binding on cells were then fixed by PFA 2% in cold PBS for 10 min on ice and analyzed on CytoFlex cytofluorometer (Beckman Coulter France, Villepinte).
as §4

Like-named read-outs stand apart in the source and are kept apart here.

B1: murine anti-hCLEC1 antibody 11H11-G11 (antibody, V domains shown)
VH: QIHLVQSGPELKKPGETVKISCKASGYTFTNFGMNWVKQAPGKGLKWMGWINTNTGEPTYADDFKGRFAFSLETSASTAYLQINNLKNEDTATYFCARGAPAWFTYWGQGTLVTVSA
VL: DIQMTQSPASLSASVGETVTITCRATENIYSYLAWYQQKQGKSPQFLVYNAKTLAEGMPSRFSGSGSGTQFSLKINILQPEDFGTYYCQHHFGTPLTFGAGTKLELK
notes: Mouse hybridoma antibody
What is called EC50 is the concentration needed to bring the measured effect to its halfway point. A word on the Kd: it is the free concentration of one partner at which half of the binding sites on the other are occupied at equilibrium, for simple one-to-one binding. What is called koff is the first-order rate constant of dissociation. What is called kon is the second-order rate constant of association. As a reminder, the IC50 is the concentration that inhibits the measured activity by half. As to B1, the EC50 turned out to be 0.033 µg/mL in assay [1], 0.0077 µg/mL in assay [2] and 0.00748 µg/mL in [4]. The values for the Kd in assay [3] and in assay [5] were roughly 1 nM and 2.91 nM, respectively. For the same molecule, the off-rate (koff) in assay [5] was found to be 0.000787 s⁻¹. The kon in assay [5] came to 270000 M⁻¹ s⁻¹. Also, the IC50 came out at 2.7 µg/mL in [6]; 0.36 µg/mL in [7]; 1.5 µg/mL in assay [8]; 0.72 µg/mL in assay [9]; 8 µg/mL in assay [10]; 0.7 µg/mL in assay [11].

B2: chimeric anti-CLEC-1A antibody 6C5 (antibody, human IgG4 S228P, kappa, V domains shown)
VH: QVQLQQSGPELVKPGASVKMSCKASGYTFTDYVISWVKQKTGQGLEWIGEIYPGSGNTYYNEKFKGKATLTADKSSSTAYIHLSSLTSEDSAVYFCAGGGSSHFDYWGQGTTLTVSS
VL: not shown
notes: also called 6C5chim; 6C5-VHwt-FcG4m / 6C5-VLwt-CLhk
A word on the EC50 (read off the curve): it is the concentration at which the effect is half-maximal. Read a low EC50 (read off the curve) as an effect from little substance. For the molecule B2, the results for the EC50 in [12], in assay [13] and in assay [14] were 0.258 µg/mL, 0.326 µg/mL and 0.123 µg/mL, respectively. The “EC50 (read off the curve)” value was roughly 0.2 µg/mL in [15], roughly 0.3 µg/mL in assay [16], roughly 0.1 µg/mL in [17] and roughly 0.1 µg/mL in assay [19]. Besides, the Kd in assay [18] was found to be 40.3 nM. The koff in [18] was determined as 0.00179 s⁻¹. The on-rate constant (kon) in [18] is 44500 M⁻¹ s⁻¹. Moreover, the IC50 in assay [20] came out at 0.626 µg/mL; in assay [21] it was 7.71 nM.
